Assay results taken from PMC6224480, “Insights into Kinesin-1 Activation from the Crystal Structure of KLC2 Bound to JIP3” (Structure(London, England:1993), 2018).

Assays:
[1] = target: JIP3^LZ (leucine zipper domain of murine JIP3 isoform A, residues 417-487) (murine); assay: SEC-MALS; JIP3^LZ on a WTC-030S5 column; 25 mM HEPES pH 7.5, 0.1 M NaCl, 1 mM TCEP; 1 ml/min
GST3C-JIP3^LZ (murine) = assay: ITC; KLC2^TPR as titrant, GST3C-JIP3^LZ in the cell; 25°C; 0.5 M NaCl, 25 mM HEPES, 5 mM MgCl2, 1 mM TCEP, pH 7.5; four experiments globally fitted with a two-stage sequential model (A + B + B → AB + B → ABB); macroscopic association constants

Sequence of KLC2^TPR (murine kinesin light chain 2 TPR domain, residues 191-480) (O88448 190-479): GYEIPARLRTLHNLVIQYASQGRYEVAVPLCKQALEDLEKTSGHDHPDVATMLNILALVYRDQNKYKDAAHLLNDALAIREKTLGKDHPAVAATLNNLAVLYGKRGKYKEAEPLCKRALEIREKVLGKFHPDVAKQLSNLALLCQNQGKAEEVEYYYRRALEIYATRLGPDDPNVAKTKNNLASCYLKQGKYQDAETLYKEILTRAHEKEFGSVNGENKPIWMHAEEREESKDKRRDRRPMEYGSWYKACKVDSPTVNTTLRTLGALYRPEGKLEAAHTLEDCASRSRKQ

stoichiometry N [1] | K (macroscopic association constant), stage A + B + B → BA + B (GST3C-JIP3^LZ (murine)) [µM⁻¹] | K (macroscopic association constant), stage BA + B → BAB (GST3C-JIP3^LZ (murine)) [µM⁻¹] | dH, stage A + B + B → BA + B (GST3C-JIP3^LZ (murine)) [kcal/mol] | dH, stage BA + B → BAB (GST3C-JIP3^LZ (murine)) [kcal/mol] | Substance
2 | – | – | – | – | JIP3^LZ (leucine zipper domain of murine JIP3 isoform A, residues 417-487) (domain or fragment)
– | 0.132 | 0.132 | -18.8 | 0.952 | KLC2^TPR (murine kinesin light chain 2 TPR domain, residues 191-480) (from UniProt O88448 190-479) (domain or fragment)
